Usually EC50 stands for the concentration needed to bring the measured effect to its halfway point. One may read the Kd as a measure of binding affinity in units of concentration. In general, IC50 refers to the midpoint of a concentration-inhibition curve. Lower therefore signals higher potency.

For test [1], the target named is T1, human LTBR endogenously expressed on cells (HepG2, A549, A375, HCC1187, RPMI-7951, primary human breast CAFs) (human, UniProt P36941 31-435). Description: cell-based or functional assay.
Test [2] addresses T1, human LTBR endogenously expressed on …. As to the kind of experiment: cell-based or functional assay. The source holds these as a separate data set.
Test [3] has the same target. As to the kind of experiment: cell-based or functional assay. The source holds these as a separate data set.
The target is the same in test [4]. As to the kind of experiment: cell-based or functional assay. This is another data set of the same source.
For test [5] the target is unchanged. As to the kind of experiment: cell-based or functional assay. The source holds these as a separate data set.
The target is the same in test [6]. As to the kind of experiment: flow cytometry, A375 cells.
In test [7] the target is T2, human FAP expressed on cells (transfected HEK293; FAP-CHO-K1 recombinant cell line, BPS cat no. 79947) (human, UniProt Q12884 1-760).
T2 construct: also called HuFAP-HEK293; Hek-FAP
Description: flow cytometry, HEK293-FAP overexpressing cells. (Flow cytometry measures light scatter and fluorescence of single cells or particles in a stream.)

For test [8], the target named is Human LTBR (Acro), recombinant protein (human, UniProt P36941 31-227, limits assumed). As to the kind of experiment: SPR (Carterra LSA) as in Example 2.6, antibody captured, LTBR as analyte. How it is done: (§1) The binding of anti-LTBR antibodies to human and cynomolgus LTBR was investigated by Surface Plasmon Resonance (SPR) on Carterra LSA. An EC30M chip was used to capture the test antibodies. Activation with EDC and sNHS occurred in MES pH 5.5 to prepare the chip for amine coupling. Goat anti-human IgG Fc antibody was then captured to the chip via incubation for 10 minutes. Excess conjugation sites were quenched with 1M Ethanolamine pH 8. To measure monovalent binding kinetics, antibodies were printed/spotted onto the chip and allowed to bind to the goat antibody, followed by subsequent washing. After the preparation, the printed chip was exposed to repeated rounds of association and dissociation with increasing analyte concentrations. In this work, recombinant proteins (Human LTBR (Acro) or cyno LTBR His (R&D)) were serially diluted across a range starting at 1500 nM with 3-fold dilutions and 10 points. The curves were fitted to global fit in a 1:1 binding model to obtain KD values. The binding affinity to both species is reported.

Test [9] deals with T3, cyno LTBR His (R&D), recombinant protein (cynomolgus (Macaca fascicularis), UniProt P36941 31-227 (human entry), limits assumed).
T3 construct: bought protein used as analyte on Carterra LSA
The test is described as above. The procedure:
as §1

Test [10] concerns the target Human FAP (Acro), recombinant protein (human, UniProt Q12884 26-760). As to the kind of experiment: SPR (Carterra LSA) as in Example 3.6, antibody captured, FAP as analyte; * value outside instrument specifications. How it is done: (§2) Binding of anti-FAP antibodies to human and cynomolgus FAP was investigated by Surface Plasmon Resonance (SPR) on Carterra LSA. An EC30M chip was used to capture the test antibodies. The chip was activated for bioconjugation using EDC and sNHS in MES pH 5.5 to prepare the chip for amine coupling. Goat anti-human IgG Fc antibody was then captured to the chip via incubation for 10 minutes. Excess conjugation sites were quenched with 1M Ethanolamine pH 8. To measure monovalent binding kinetics, antibodies were printed/spotted onto the chip and allowed to bind to the goat antibody, followed by subsequent washing. After the preparation, the printed chip was exposed to repeated rounds of association and dissociation with increasing analyte concentrations. In this work, recombinant proteins (Human FAP (Acro) or cyno FAP His (Acro)) were serially diluted across a range starting at 1500 nM with 3-fold dilutions and 10 points. The curves were fitted to global fit in a 1:1 binding model to obtain KD values. The binding affinity to both human and cynomolgus FAP is reported in.

Test [11] has as its target T4, cyno FAP His (Acro), recombinant protein (cynomolgus (Macaca fascicularis), UniProt Q12884 26-760 (human entry)).
T4 construct: bought protein used as analyte on Carterra LSA
Described as above. How it is done:
as §2

Test [12] has as its target T1, human LTBR endogenously expressed on …. As to the kind of experiment: cell-based or functional assay. This is another data set of the same source.
Test [13] shares this target. As to the kind of experiment: cell-based or functional assay. This is another data set of the same source.
The target is the same in test [14]. As to the kind of experiment: cell-based or functional assay. This is another data set of the same source.
Test [15] has the same target. Description: flow cytometry, A549 cells. How it is done: (§3) The ability of VHH-Fc fusion proteins to bind to endogenously expressed LTBR on the A549 tumor cell and to inhibit human LIGHT (Acro, cat. no LIT-H5242) binding to A549 cells was assessed. BHA10 was employed in the assay as a positive control. Recombinant human LIGHT was labelled with PE fluorochrome, using PE/R-Phycoerythrin Conjugation Kit—Lightning-Link® (Abcam, cat no ab102918), following the manufacturer's instructions. 1×10⁶ cells were resuspended in the FACS buffer (1% BSA, 0.1% Sodium Azide in PBS), and 50 ul was added to each well ([…]) of a 96-U bottom plate. The cells were washed and resuspended in 25 ul of antibody dilution (2× final concentration) followed by 0.5 h incubation at 4° C., 25 ul of PE labelled LIGHT at 48 nM (2× final concentration) in FACS buffer was subsequently added to the cells and additionally incubated for 1 h at 4° C. […] Next, cells were extensively washed and fixed with Paraformaldehyde Solution, 4% in PBS (Thermo Scientific, cat no J19943.K2) for 20 mins, following the manufacturer's instructions. The cells were then washed, resuspended in PBS, and read on Beckman Coulter CytoFLEX. The data were analysed using FloJo V10 and GraphPad Prism v9. The IC50 and EC50 values can be found in.

For test [16] the target is unchanged. As to the kind of experiment: flow cytometry, A549 cells. The procedure:
In short, 1×10⁶ cells were resuspended in the FACS buffer (1% BSA, 0.1% Sodium Azide in PBS), and 50 μl was added to each well (5×10⁴ cells/well) of a 96-U bottom plate. The cells were washed once and resuspended in 50 μl/well of FACS buffer containing a 1:3, 11-point series dilutions of constructs 4.1-4.6 and clones 4.8-4.9 followed by 1 h incubation at 4° C. […] Next, cells were washed and resuspended in FACS buffer and read on Beckman Coulter CytoFLEX. The data were analysed using FloJo V10 and GraphPad Prism v9. Clone 4.7 was tested for binding to A375 (LTBR positive cell line) and the HEK293-FAP overexpressing cell line, as described in examples 2.4 and 3.5. The EC50 values can be found in.
This is another data set of the same source.

Test [17] shares this target. As to the kind of experiment: flow cytometry, inhibition of PE-LIGHT (24 nM final) binding to A549 cells; competitor LIGHT; partial inhibition. The procedure:
as §3

B1: Clone 4.7 (bispecific antibody, human IgG1, kappa, L234A L235A)
heavy 1: not shown
heavy 2: QVQLVQSGAEVKKPGASVKVSCKASGYTFTGYYMNWVRQAPGQGLEWMGWINPQSGDVNFAQKFQGRVTMTRDTSISTAYMELSRLRSDDTAVYYCARQFRGYSYGYGMDVWGQGTTVTVSSASTKGPSVFPLAPSSKSTSGGTAALGCLVKDYFPEPVTVSWNSGALTSGVHTFPAVLQSSGLYSLSSVVTVPSSSLGTQTYICNVNHKPSNTKVDKKVEPKSCDKTHTCPPCPAPEAAGGPSVFLFPPKPKDTLMISRTPEVTCVVVDVSHEDPEVKFNWYVDGVEVHNAKTKPREEQYNSTYRVVSVLTVLHQDWLNGKEYKCKVSNKALPAPIEKTISKAKGQPREPQVCTLPPSRDELTKNQVSLSCAVKGFYPSDIAVEWESNGQPENNYKTTPPVLDSDGSFFLVSKLTVDKSRWQQGNVFSCSVMHEALHNHYTQKSLSLSPG
light: not shown
notes: FAP:LTBR 2:1 heterodimer of FAP mAb (clone 3.7) with C terminal fused LTBR scFv (clone 2.3), human IgG1 LALA
As to B1, the “HepG2 Reporter assay, HepG2:FAP-CHO-K1 Co-culture EC50” value in test [1] turned out to be 0.023 nM. For the same molecule, the “CCL19 upregulation, HCC1187:CAF Co-culture EC50” value in test [2] came out at 0.073 nM. Besides, the “ICAM1 upregulation in CAFs monoculture assay EC50” value in [3] was 0.012 nM. Moreover, in test [4], the “chemokine (CCL5) induction in RPMI-7951 EC50” value stood at 0.0096 nM. Also, the “HCC-1187:RPMI7951 (cis-activation) co-culture assay CCL5 read-out EC50” value in [5] amounted to 0.01 nM. The concentration for a half-maximal effect (EC50) is 6 nM in test [6] and 0.34 nM in test [7]. The Kd in test [8] came out at 1.8 nM; in test [9], 0.4 nM; in [10] it was 0.16 nM; in [11] it was 0.15 nM.

B2: BHA10 (antibody, V domains shown)
VH: QVQLVQSGAEVKKPGSSVKVSCKASGYTFTTYYLHWVRQAPGQGLEWMGWIYPGNVHAQYNEKFKGRVTITADKSTSTAYMELSSLRSEDTAVYYCARSWEGFPYWGQGTTVTVSS
VL: DIQMTQSPSSLSASVGDRVTITCKASQNVGINVAWYQQKPGKAPKSLISSASYRYSGVPSRFSGSGSGTDFTLTISSLQPEDFATYFCQQYDTYPFTFGQGTKVEIK
notes: as disclosed in WO2004002431; also called BHA10 (anti-LTBR); monospecific anti-LTBR agonist
Regarding B2, in test [12], the “HepG2 Reporter assay (NFKB activation-induced luciferase activity) EC50” value was found to be 0.012 nM. In addition, in test [13], the “HCC1187 chemokine induction assay (CCL19) EC50” value is 0.53 nM. In test [14], the “HepG2 reporter assay EC50 (w/o cross-linking antibody)” value stood at 0.052 nM and the “HepG2 reporter assay EC50 (with cross-linking antibody)” value came out at 0.029 nM. This molecule also came in with an EC50 in test [15] of 0.78 nM. This molecule had a half-maximal effective concentration (EC50) in test [16] of 0.055 nM. The same molecule had an IC50 in [17] of 0.67 nM.
